# Test results taken from paper PMC12861478, “Amino acid transporter CsBAT links GABA accumulation to flavonoid metabolism in Camellia sinensis” (Horticulture Research, 2025).
# Columns and labels:
# Assay in all cases: cells, lysate or membranes
# [1] = substrate: CCNC(=O)CC[C@H](N)C(=O)O; settings: transport; nitrogen-starved cells in nitrogen-free YNB
# [2] = substrate: N[C@@H](CCC(=O)O)C(=O)O; settings: transport; nitrogen-starved cells in nitrogen-free YNB
# [3] = substrate: NC(=O)CC[C@H](N)C(=O)O; settings: transport; nitrogen-starved cells in nitrogen-free YNB
# [4] = substrate: NCCCC(=O)O; settings: transport; nitrogen-starved cells in nitrogen-free YNB; 0.09375–8 mM GABA; H+-dependent
protein,measurement,setting,value
CsBAT (Camellia sinensis) (protein) MGWHSHSHVQNGDSSLDTGHTRLHELGYKQELKRDLSVVSNFAFSFSIISVLTGITTLYNTGLNYGGPVVLVYGWLIAGVFTMIVGLSMAEICSSYPTSGGLYYWSAKLAGPSWAPFASWLTGWFNIVGQWAVTTSVDFSLAQLIQVIILLSTGGKNGGGYQASKYVVIGIHGGILLLHAIINSLPITWLSLFGQFAALWNLIGVFVLMILIPTVAKEKASAKFVFTFFNTDNGDGINSKVYIFVLGLLMSQYTLTGYDASAHMTEETKSADKNGPKGIISAIGISVIVGWGYLLGVTFAVTKIPNLLSENNDAGGYAIAEVFYLAFKNRYGNGIGGIICLGVVAVAIFFCGMSSITSNSRMAYAFSRDGAMPLSSVWHKVNKHEVPLNAVWLSAIIAFCMALTSLGSIVAFQAMVSIATIGLYIAYALPIFFRVTLARKSFTPGPFNLGRYGVLVGWIAVLWVATISVLFSLPVSYPITDQTLNYTPVAVGGLLILTVASWIFSARHWFKGPITNIDDVL,Km,[1],0.36 ± 0.03 mM
same,Km,[2],0.58 ± 0.05 mM
same,Km,[3],0.40 ± 0.04 mM
same,Km,[4],0.29 ± 0.02 mM
